Numbering of substitutions follows the chain as printed. Values joined by “and” are separate entries in the source; they are usually repeats but may differ in a detail not shown here. Equal entries are not always repeated.
T1: contactin 1^fe HM (full ectodomain, residues 21–996), C-terminally biotinylated SPR ligand (mouse, UniProt P12960 21-996, biotin on the C-terminal biotin acceptor peptide; N-linked high mannose glycans)
T1 chain: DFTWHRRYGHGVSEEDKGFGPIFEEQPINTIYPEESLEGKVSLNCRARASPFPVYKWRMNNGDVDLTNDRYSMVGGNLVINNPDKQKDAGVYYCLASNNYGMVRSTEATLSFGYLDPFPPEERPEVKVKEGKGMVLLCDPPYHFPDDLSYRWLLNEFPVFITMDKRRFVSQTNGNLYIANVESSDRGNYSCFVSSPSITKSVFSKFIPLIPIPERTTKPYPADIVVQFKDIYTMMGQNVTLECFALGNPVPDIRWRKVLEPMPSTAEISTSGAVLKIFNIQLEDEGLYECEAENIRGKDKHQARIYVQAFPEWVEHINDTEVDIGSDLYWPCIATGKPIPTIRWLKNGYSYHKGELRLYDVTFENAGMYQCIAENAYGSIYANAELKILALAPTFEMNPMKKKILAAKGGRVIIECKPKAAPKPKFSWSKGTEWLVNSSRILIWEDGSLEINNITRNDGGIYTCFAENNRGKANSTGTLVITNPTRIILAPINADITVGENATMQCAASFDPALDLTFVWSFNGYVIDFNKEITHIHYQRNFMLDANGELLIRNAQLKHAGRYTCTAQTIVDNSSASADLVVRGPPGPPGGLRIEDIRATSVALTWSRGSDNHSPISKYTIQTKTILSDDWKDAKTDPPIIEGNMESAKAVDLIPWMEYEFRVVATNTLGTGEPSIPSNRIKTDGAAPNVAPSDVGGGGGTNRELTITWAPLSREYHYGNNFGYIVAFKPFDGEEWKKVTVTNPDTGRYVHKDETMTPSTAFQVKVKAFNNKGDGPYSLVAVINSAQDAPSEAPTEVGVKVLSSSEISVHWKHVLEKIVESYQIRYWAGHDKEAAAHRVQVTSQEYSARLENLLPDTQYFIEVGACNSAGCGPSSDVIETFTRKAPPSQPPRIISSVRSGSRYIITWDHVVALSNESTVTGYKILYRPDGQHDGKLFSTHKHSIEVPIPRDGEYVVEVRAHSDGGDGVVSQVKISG

B1: contactin 1^fe (full ectodomain, residues 21–996), complex glycans (domain or fragment, mouse, UniProt P12960 21-996, looked up)
chain: T1 chain
modifications: N-linked complex glycans
notes: contactin 1, mouse, full ectodomain, residues 21–996; template Image Clone 30099512; Same chain as m7, other host and glycan type; also called contactin 1^fe CG; source: HEK293-E (EBNA1-expressing HEK293), secreted, purified (Ni Sepharose excel, SEC)
B2: contactin 1^fe Leu279Arg, high mannose glycans (domain or fragment, mouse, UniProt P12960 21-996, looked up)
chain: T1 chain with L259R
modifications: N-linked high mannose glycans
notes: contactin 1, mouse, full ectodomain, residues 21–996, Leu279Arg; template Image Clone 30099512; also called Leu279Arg contactin 1^fe; Contactin 1^fe Leu279Arg HM
B3: contactin 1^fe (full ectodomain, residues 21–996), high mannose glycans (domain or fragment, mouse, UniProt P12960 21-996, looked up)
chain: T1 chain
modifications: N-linked high mannose glycans
notes: contactin 1, mouse, full ectodomain, residues 21–996; template Image Clone 30099512; Vector pUPE107.03 supplies a cystatin secretion signal peptide; also called contactin 1^fe HM; source: HEK293-ES (GnTI−, EBNA1-expressing HEK293), secreted, purified (Ni Sepharose excel, SEC)
B4: contactin 1^Ig1–6 (residues 21–604), high mannose glycans (domain or fragment, mouse, UniProt P12960 21-604, looked up)
chain: DFTWHRRYGHGVSEEDKGFGPIFEEQPINTIYPEESLEGKVSLNCRARASPFPVYKWRMNNGDVDLTNDRYSMVGGNLVINNPDKQKDAGVYYCLASNNYGMVRSTEATLSFGYLDPFPPEERPEVKVKEGKGMVLLCDPPYHFPDDLSYRWLLNEFPVFITMDKRRFVSQTNGNLYIANVESSDRGNYSCFVSSPSITKSVFSKFIPLIPIPERTTKPYPADIVVQFKDIYTMMGQNVTLECFALGNPVPDIRWRKVLEPMPSTAEISTSGAVLKIFNIQLEDEGLYECEAENIRGKDKHQARIYVQAFPEWVEHINDTEVDIGSDLYWPCIATGKPIPTIRWLKNGYSYHKGELRLYDVTFENAGMYQCIAENAYGSIYANAELKILALAPTFEMNPMKKKILAAKGGRVIIECKPKAAPKPKFSWSKGTEWLVNSSRILIWEDGSLEINNITRNDGGIYTCFAENNRGKANSTGTLVITNPTRIILAPINADITVGENATMQCAASFDPALDLTFVWSFNGYVIDFNKEITHIHYQRNFMLDANGELLIRNAQLKHAGRYTCTAQTIVDNSSASADLVVRG
modifications: N-linked high mannose glycans (glycans at Asn208, Asn258 and Asn521 are named)
notes: contactin 1, mouse, domains Ig1 to Ig6, residues 21–604; template Image Clone 30099512; Vector pUPE107.03 supplies a cystatin secretion signal peptide; also called CNTN1^Ig1–6; contactin 1^Ig1–6 HM; source: HEK293-ES (GnTI−, EBNA1-expressing HEK293), secreted, purified (Ni Sepharose excel, SEC)
B5: contactin 1: high mannose glycans (GnTI- HEK293) (protein)
parent chain: MKMPLLVSHLLLISLTSCLGDFTWHRRYGHGVSEEDKGFGPIFEEQPINTIYPEESLEGKVSLNCRARASPFPVYKWRMNNGDVDLTNDRYSMVGGNLVINNPDKQKDAGVYYCLASNNYGMVRSTEATLSFGYLDPFPPEERPEVKVKEGKGMVLLCDPPYHFPDDLSYRWLLNEFPVFITMDKRRFVSQTNGNLYIANVESSDRGNYSCFVSSPSITKSVFSKFIPLIPIPERTTKPYPADIVVQFKDIYTMMGQNVTLECFALGNPVPDIRWRKVLEPMPSTAEISTSGAVLKIFNIQLEDEGLYECEAENIRGKDKHQARIYVQAFPEWVEHINDTEVDIGSDLYWPCIATGKPIPTIRWLKNGYSYHKGELRLYDVTFENAGMYQCIAENAYGSIYANAELKILALAPTFEMNPMKKKILAAKGGRVIIECKPKAAPKPKFSWSKGTEWLVNSSRILIWEDGSLEINNITRNDGGIYTCFAENNRGKANSTGTLVITNPTRIILAPINADITVGENATMQCAASFDPALDLTFVWSFNGYVIDFNKEITHIHYQRNFMLDANGELLIRNAQLKHAGRYTCTAQTIVDNSSASADLVVRGPPGPPGGLRIEDIRATSVALTWSRGSDNHSPISKYTIQTKTILSDDWKDAKTDPPIIEGNMESAKAVDLIPWMEYEFRVVATNTLGTGEPSIPSNRIKTDGAAPNVAPSDVGGGGGTNRELTITWAPLSREYHYGNNFGYIVAFKPFDGEEWKKVTVTNPDTGRYVHKDETMTPSTAFQVKVKAFNNKGDGPYSLVAVINSAQDAPSEAPTEVGVKVLSSSEISVHWKHVLEKIVESYQIRYWAGHDKEAAAHRVQVTSQEYSARLENLLPDTQYFIEVGACNSAGCGPSSDVIETFTRKAPPSQPPRIISSVRSGSRYIITWDHVVALSNESTVTGYKILYRPDGQHDGKLFSTHKHSIEVPIPRDGEYVVEVRAHSDGGDGVVSQVKISGVSTLSSSLLSLLLPSLGFLVYSEF
B6: contactin 1: kifunensine on both cell types (protein)
parent chain: B5 parent chain
B7: contactin 1: kifunensine (protein)
parent chain: B5 parent chain
B8: contactin 1: kifunensine on contactin 1 cells (protein)
parent chain: B5 parent chain
B9: neurofascin 155^Ig1–6 (residues 25–633), high mannose glycans (domain or fragment)
chain: IEIPMDLTQPPTITKQSVKDHIVDPRDNILIECEAKGNPAPSFHWTRNSRFFNIAKDPRVSMRRRSGTLVIDFRSGGRPEEYEGEYQCFARNKFGTALSNRIRLQVSKSPLWPKENLDPVVVQEGAPLTLQCNPPPGLPSPVIFWMSSSMEPITQDKRVSQGHNGDLYFSNVMLQDMQTDYSCNARFHFTHTIQQKNPFTLKVLTNNPYNDSSLRNHPDIYSARGVAERTPSFMYPQGTSSSQMVLRGMDLLLECIASGVPTPDIAWYKKGGDLPSNKAKFENFNKALRITNVSEEDSGEYFCLASNKMGSIRHTISVRVKAAPYWLDEPKNLILAPGEDGRLVCRANGNPKPTVQWMVNGEPLQSAPPNPNREVAGDTIIFRDTQISSRAVYQCNTSNEHGYLLANAFVSVLDVPPRMLSARNQLIRVILYNRTRLDCPFFGSPIPTLRWFKNGQGSNLDGGNYHVYENGSLEIKMIRKEDQGIYTCVATNILGKAENQVRLEVKDPTRIYRMPEDQVAKRGTTVQLECRVKHDPSLKLTVSWLKDDEPLYIGNRMKKEDDSLTIFGVAERDQGSYTCMASTELDQDLAKAYLTVLADQATPTNRLAA
modifications: N-linked high mannose glycans (glycans at Asn316, Asn420, Asn457 and Asn494 are named)

Experiments:
[1] = target: the molecule itself; experiment: AUC; sedimentation velocity, c(s) distribution; low concentration (9 µM contactin 1^Ig1–6, 5 µM contactin 1^fe), 12 mm centerpieces; 25 mM HEPES pH 7.5, 150 mM NaCl, 20 °C; abundances relative to normalized monomer abundance
[2] = target: the molecule itself; experiment: native MS; 2.5 µM protein in 150 mM ammonium acetate pH 7.5; static nano-electrospray, LCT time-of-flight
[3] = target: the molecule itself; experiment: AUC; sedimentation velocity, c(s) distribution; higher concentration (36 µM contactin 1^Ig1–6, 22 µM contactin 1^fe), 3 mm centerpieces; 25 mM HEPES pH 7.5, 150 mM NaCl, 20 °C; abundances relative to normalized monomer abundance
SAXS Kratky plots = settings: glycan changed form; control: contactin 1 with complex glycans
[4] = K562 cell clustering, co-clustering ratio; settings: glycan changed form; control: untreated contactin 1 and neurofascin 155 K562 cells
[5] = K562 cell clustering index; settings: glycan changed form; control: untreated contactin 1 K562 cells
[6] = target: neurofascin 155^Ig1–6 (residues 25–633), high mannose glycans (mouse); experiment: SEC-MALS + other: SAXS; dimer to monomers; estimate from the concentration dependence of peak position, molecular weight and Rg; 25 mM HEPES pH 7.5, 150 mM NaCl
[7] = target: contactin 1^Ig1–6 HM, C-terminally biotinylated SPR ligand (mouse) (UniProt P12960); experiment: SPR; SPR imaging (MX96 SPRi); C-terminally biotinylated contactin 1 ligands spotted on a P-STREP SensEye chip, neurofascin 155^Ig1–6 as analyte; 25 °C; 25 mM HEPES pH 7.5, 150 mM NaCl with 0.005% Tween-20; equilibrium response fitted with a 1:1 Langmuir model
[8] = target: T1, contactin 1^fe HM (full ectodomain, …); experiment: SPR

| Binder | Dimer abundance (%) [1] [%] | Trace amounts higher order species [1] [%] | Trimer abundance (%) [1] [%] | stoichiometry N [2] | Dimer abundance (%) [3] [%] | Trimer abundance (%) [3] [%] | also measured |
| --- | --- | --- | --- | --- | --- | --- | --- |
| B1 | 9.9 | 4.6 | 3.4 | 2 | 9.8 | 4 |  |
| B2 | 7.3 | 1.4 | 8.7 | ≤ 6 | 5.7 | 6.7 |  |
| B3 | 11.7 |  | 1.8 | 2 | 2.9 | 0.3 |  |
| B4 | 2.4 | 0.6 | 0.8 |  | 0.1 |  |  |
| B5 |  |  |  |  |  |  | structure_or_conformation (SAXS Kratky plots): no change |
| B6 |  |  |  |  |  |  | other: heterophilic cell co-clustering [4]: no change |
| B7 |  |  |  |  |  |  | other: homophilic cell clustering [5]: no change |
| B8 |  |  |  |  |  |  | other: heterophilic cell co-clustering [4]: increases |
| B9 |  |  |  |  |  |  | Kd [6]: 5000 to 30000 nM; Kd [7]: 220 nM; Kd [8]: 270 nM and 310 nM |

From paper PMC9633819 (Nature Communications, 2022)
